In patent US20150344570A1 (published 2015) one finds Ho/Con_1a data, which are given here for 21 molecules.

B1: GpH7-B3 variant Q295_13S/GpL16-k0 (antibody, human IgG1, kappa)
heavy: not shown
light: DIVMTQSPLSLPVTPGEPASISCQASESLVHSNRNTYLHWYLQKPGQSPQLLIYKVSNRFSGVPDRFSGSGSGTDFTLKISRVEAEDVGVYYCSQNTHVPPTFGQGTKVEIERTVAAPSVFIFPPSDEQLKSGTASVVCLLNNFYPREAKVQWKVDNALQSGNSQESVTEQDSKDSTYSLSSTLTLSKADYEKHKVYACEVTHQGLSSPVTKSFNRGEC
notes: also called Ho Ab Q295_13S
B2: GpH7-B3 variant S239_18N/GpL16-k0 (antibody, human IgG1, kappa)
heavy: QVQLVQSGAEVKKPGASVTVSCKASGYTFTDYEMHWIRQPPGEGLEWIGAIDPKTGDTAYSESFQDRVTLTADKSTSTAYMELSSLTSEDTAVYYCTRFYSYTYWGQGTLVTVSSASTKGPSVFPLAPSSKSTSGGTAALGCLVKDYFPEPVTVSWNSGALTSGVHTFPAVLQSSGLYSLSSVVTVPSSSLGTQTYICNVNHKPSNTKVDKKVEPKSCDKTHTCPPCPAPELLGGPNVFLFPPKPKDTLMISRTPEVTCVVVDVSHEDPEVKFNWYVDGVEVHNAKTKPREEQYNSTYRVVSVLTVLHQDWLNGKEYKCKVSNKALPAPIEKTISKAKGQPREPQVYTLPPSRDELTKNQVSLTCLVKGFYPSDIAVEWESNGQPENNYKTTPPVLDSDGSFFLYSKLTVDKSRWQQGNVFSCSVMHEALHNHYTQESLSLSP
light: B1 light
notes: also called Ho Ab S239_18N
B3: GpH7-B3 variant S239_14T/GpL16-k0 (antibody, human IgG1, kappa)
heavy: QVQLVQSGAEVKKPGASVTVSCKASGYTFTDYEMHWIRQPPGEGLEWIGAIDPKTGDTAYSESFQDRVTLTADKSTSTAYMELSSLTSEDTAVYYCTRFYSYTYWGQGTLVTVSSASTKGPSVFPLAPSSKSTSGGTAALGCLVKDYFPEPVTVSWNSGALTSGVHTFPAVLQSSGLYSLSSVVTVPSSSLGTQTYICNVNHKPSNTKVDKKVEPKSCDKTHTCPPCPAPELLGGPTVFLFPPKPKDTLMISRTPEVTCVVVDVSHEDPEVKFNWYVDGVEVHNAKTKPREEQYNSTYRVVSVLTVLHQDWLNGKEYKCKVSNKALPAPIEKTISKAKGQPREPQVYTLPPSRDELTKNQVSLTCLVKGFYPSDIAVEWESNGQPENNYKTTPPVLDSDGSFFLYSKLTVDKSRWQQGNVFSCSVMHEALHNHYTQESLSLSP
light: B1 light
notes: also called Ho Ab S239_14T
B4: GpH7-B3 variant S298_01G/GpL16-k0 (antibody, human IgG1, kappa)
heavy: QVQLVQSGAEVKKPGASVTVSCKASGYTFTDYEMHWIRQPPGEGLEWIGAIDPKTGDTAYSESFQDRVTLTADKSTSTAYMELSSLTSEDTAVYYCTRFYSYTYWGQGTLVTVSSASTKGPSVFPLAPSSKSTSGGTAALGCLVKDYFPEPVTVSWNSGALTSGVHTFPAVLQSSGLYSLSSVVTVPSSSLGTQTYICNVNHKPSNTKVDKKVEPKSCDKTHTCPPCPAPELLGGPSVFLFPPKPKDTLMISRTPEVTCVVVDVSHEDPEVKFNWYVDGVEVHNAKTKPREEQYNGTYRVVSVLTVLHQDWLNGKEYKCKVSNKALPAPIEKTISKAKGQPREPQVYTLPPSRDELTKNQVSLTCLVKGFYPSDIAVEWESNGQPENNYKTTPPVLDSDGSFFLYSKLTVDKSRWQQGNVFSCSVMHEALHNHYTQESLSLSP
light: B1 light
notes: also called Ho Ab S298_01G
B5: GpH7-B3 variant S298_08L/GpL16-k0 (antibody, human IgG1, kappa)
heavy: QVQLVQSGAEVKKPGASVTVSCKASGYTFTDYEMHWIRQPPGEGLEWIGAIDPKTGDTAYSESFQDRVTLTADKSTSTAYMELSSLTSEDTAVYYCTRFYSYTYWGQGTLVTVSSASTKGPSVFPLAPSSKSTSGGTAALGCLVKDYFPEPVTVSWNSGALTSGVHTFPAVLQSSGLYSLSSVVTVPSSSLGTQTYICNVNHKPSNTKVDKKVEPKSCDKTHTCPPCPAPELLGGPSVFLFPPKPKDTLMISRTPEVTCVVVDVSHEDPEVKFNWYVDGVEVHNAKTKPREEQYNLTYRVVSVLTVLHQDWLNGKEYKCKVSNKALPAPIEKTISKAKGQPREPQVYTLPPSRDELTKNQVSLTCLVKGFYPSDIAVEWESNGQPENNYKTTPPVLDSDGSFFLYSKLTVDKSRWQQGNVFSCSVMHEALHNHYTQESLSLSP
light: B1 light
notes: also called Ho Ab S298_08L
B6: GpH7-B3 variant S298_07I/GpL16-k0 (antibody, human IgG1, kappa)
heavy: not shown
light: B1 light
notes: also called Ho Ab S298_07I
B7: GpH7-B3 variant S239_01G/GpL16-k0 (antibody, human IgG1, kappa)
heavy: not shown
light: B1 light
notes: also called Ho Ab S239_01G
B8: GpH7-B3 variant S239_19Q/GpL16-k0 (antibody, human IgG1, kappa)
heavy: not shown
light: B1 light
notes: also called Ho Ab S239_19Q
B9: GpH7-B3 variant S267_16H/GpL16-k0 (antibody, human IgG1, kappa)
heavy: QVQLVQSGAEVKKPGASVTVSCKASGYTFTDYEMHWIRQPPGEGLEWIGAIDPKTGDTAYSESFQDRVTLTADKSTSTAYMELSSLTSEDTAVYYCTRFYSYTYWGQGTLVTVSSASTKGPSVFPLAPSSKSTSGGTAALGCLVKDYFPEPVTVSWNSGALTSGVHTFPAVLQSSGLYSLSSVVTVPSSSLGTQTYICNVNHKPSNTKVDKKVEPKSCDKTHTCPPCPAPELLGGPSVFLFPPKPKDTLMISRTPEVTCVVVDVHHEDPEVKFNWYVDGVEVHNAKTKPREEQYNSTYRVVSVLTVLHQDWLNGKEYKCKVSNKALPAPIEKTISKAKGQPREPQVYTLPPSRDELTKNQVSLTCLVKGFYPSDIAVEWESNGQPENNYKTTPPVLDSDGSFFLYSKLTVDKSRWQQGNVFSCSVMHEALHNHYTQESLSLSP
light: B1 light
notes: also called Ho Ab S267_16H
B10: GpH7-B3 variant S298_06M/GpL16-k0 (antibody, human IgG1, kappa)
heavy: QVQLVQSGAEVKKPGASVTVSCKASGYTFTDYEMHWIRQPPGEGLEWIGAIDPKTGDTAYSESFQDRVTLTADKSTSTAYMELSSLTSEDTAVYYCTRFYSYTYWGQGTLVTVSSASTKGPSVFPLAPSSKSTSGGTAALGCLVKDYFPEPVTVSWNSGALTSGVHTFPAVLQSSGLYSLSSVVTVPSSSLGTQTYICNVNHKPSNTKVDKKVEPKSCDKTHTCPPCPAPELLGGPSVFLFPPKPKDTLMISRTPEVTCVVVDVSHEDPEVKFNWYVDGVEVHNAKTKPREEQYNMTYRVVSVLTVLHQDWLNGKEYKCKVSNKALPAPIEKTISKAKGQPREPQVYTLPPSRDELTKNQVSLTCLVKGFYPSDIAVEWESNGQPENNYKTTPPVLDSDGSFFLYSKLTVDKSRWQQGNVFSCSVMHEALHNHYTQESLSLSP
light: B1 light
notes: also called Ho Ab S298_06M
B11: GpH7-B3 variant Q295_18N/GpL16-k0 (antibody, human IgG1, kappa)
heavy: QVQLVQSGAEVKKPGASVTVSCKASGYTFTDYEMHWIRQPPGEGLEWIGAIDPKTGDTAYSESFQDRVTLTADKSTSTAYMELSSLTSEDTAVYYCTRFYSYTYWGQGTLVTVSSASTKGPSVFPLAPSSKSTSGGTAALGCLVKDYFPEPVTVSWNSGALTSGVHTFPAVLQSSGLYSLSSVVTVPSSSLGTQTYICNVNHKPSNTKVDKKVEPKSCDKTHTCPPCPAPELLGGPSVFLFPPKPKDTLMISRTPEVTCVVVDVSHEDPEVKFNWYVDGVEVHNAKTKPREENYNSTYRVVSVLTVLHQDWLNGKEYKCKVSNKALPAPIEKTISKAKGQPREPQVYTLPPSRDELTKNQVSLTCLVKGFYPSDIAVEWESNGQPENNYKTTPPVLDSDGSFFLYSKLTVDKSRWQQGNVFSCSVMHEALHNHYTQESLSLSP
light: B1 light
notes: also called Ho Ab Q295_18N
B12: GpH7-B3 variant S267_01G/GpL16-k0 (antibody, human IgG1, kappa)
heavy: not shown
light: B1 light
notes: also called Ho Ab S267_01G
B13: GpH7-B3 variant S267_03V/GpL16-k0 (antibody, human IgG1, kappa)
heavy: not shown
light: B1 light
notes: also called Ho Ab S267_03V
B14: GpH7-B3 variant S239_09D/GpL16-k0 (antibody, human IgG1, kappa)
heavy: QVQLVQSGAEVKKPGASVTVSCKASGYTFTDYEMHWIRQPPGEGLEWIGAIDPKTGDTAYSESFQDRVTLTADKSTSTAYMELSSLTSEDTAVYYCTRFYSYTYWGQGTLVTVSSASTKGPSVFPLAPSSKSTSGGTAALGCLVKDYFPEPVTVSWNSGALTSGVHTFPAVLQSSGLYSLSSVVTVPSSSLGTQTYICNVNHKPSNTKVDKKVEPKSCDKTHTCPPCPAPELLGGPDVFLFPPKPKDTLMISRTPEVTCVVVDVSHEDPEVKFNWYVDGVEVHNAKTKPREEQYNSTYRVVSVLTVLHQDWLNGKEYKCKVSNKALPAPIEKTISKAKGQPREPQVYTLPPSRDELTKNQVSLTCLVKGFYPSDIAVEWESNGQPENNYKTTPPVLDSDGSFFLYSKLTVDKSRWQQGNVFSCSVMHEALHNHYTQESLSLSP
light: B1 light
notes: also called Ho Ab S239_09D; GpH7-B3-06-09D/GpL16-k0
B15: GpH7-B3 variant S267_09D/GpL16-k0 (antibody, human IgG1, kappa)
heavy: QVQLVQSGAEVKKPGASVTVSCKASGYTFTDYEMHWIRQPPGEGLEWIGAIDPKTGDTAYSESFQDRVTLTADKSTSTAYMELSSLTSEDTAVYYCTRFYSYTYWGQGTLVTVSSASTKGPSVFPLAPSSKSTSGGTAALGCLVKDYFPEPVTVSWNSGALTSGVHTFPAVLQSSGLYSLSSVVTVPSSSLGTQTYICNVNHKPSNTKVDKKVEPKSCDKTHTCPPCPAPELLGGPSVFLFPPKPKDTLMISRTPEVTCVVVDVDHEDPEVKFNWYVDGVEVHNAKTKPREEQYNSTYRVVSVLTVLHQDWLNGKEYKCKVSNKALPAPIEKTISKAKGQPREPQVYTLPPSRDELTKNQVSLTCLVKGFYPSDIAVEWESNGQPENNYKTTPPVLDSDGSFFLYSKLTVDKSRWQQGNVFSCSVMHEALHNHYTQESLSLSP
light: B1 light
notes: also called Ho Ab S267_09D
B16: GpH7-B3 variant S298_03V/GpL16-k0 (antibody, human IgG1, kappa)
heavy: not shown
light: B1 light
notes: also called Ho Ab S298_03V
B17: GpH7-B3 variant S267_02A/GpL16-k0 (antibody, human IgG1, kappa)
heavy: not shown
light: B1 light
notes: also called Ho Ab S267_02A
B18: GpH7-B3 variant Q295_14T/GpL16-k0 (antibody, human IgG1, kappa)
heavy: not shown
light: B1 light
notes: also called Ho Ab Q295_14T
B19: GpH7-B3 variant S267_08L/GpL16-k0 (antibody, human IgG1, kappa)
heavy: not shown
light: B1 light
notes: also called Ho Ab S267_08L
B20: GpH7-B3 variant S298_02A/GpL16-k0 (antibody, human IgG1, kappa)
heavy: not shown
light: B1 light
notes: also called Ho Ab S298_02A
B21: GpH7-B3 variant S298_04F/GpL16-k0 (antibody, human IgG1, kappa)
heavy: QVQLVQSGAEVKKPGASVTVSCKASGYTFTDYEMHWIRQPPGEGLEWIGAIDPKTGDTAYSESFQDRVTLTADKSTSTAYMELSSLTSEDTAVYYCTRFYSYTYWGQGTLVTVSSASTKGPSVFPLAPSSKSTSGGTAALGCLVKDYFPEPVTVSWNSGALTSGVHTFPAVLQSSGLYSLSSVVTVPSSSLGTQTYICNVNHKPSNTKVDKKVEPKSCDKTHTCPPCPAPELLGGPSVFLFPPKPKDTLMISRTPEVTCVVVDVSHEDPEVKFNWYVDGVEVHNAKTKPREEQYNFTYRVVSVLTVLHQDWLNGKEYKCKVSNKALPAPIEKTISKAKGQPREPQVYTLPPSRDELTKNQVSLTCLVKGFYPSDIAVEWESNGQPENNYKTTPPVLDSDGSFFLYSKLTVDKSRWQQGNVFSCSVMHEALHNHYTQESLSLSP
light: B1 light
notes: also called Ho Ab S298_04F

T1 sequence (P12314 16-292): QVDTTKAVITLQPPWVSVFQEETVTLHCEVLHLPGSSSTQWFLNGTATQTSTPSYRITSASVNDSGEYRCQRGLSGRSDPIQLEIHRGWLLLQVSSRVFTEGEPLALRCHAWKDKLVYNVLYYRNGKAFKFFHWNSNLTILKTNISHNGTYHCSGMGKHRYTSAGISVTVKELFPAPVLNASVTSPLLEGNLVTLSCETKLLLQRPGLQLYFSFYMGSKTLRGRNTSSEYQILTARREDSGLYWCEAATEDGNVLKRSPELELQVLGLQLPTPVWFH

The experiment addresses T1, FcγRIa (human, UniProt P12314 16-292).
T1 construct: extracellular domain; Soluble extracellular domain expressed in FreeStyle293 cells, used as analyte in Biacore; also called FcgRI; 1a; not shown: His tag attached to the C terminus
Put plainly: SPR (Biacore); Ho Ab vs HoCon Ab GpH7-B3/GpL16-k0. The method, then: Analysis of interaction between objective antibody and the FcγR was carried out using Biacore T100 (GE Healthcare). HBS-EP+ (GE Healthcare) was used as the running buffer, and the measurement temperature was set to 25° C. Chips produced by immobilizing the antigen peptide by the amine coupling method to a Series S Sencor Chip CM5 (GE Healthcare), or alternatively, chips produced by allowing preliminarily biotinylated antigen peptides to interact with and immobilize onto a Series S Sensor Chip SA (certified) (GE Healthcare) were used. Antibodies of interest were captured onto an antigen peptide-immobilized chip, and allowed to interact to each FcγR diluted with running buffer. To regenerate and repeatedly use the chip, the antibodies captured on the chip were washed off by reacting 10 mM glycine-HCl, pH 1.5.
B1: the Ho/Con_1a was 101 relative binding, control = 100.

Turning to B2, the Ho/Con_1a was 97.9 relative binding, control = 100.

As to B3, the Ho/Con_1a was 101 relative binding, control = 100.

Turning to B4, the Ho/Con_1a is 103 relative binding, control = 100.

As for B5, the Ho/Con_1a was 104 relative binding, control = 100.

Consider B6, for which the Ho/Con_1a is 103 relative binding, control = 100.

As to B7, the Ho/Con_1a was 101 relative binding, control = 100.

With B8, the Ho/Con_1a is 93.4 relative binding, control = 100.

For B9, the Ho/Con_1a was 98.2 relative binding, control = 100.

For the molecule B10, the Ho/Con_1a was 106 relative binding, control = 100.

For the molecule B11, the Ho/Con_1a was 101 relative binding, control = 100.

Take B12: the Ho/Con_1a is 102 relative binding, control = 100.

On to B13, for which the Ho/Con_1a was 102 relative binding, control = 100.

Consider B14, for which the Ho/Con_1a was 101 relative binding, control = 100.

On to B15, for which the Ho/Con_1a is 106 relative binding, control = 100.

As for B16, the Ho/Con_1a was 106 relative binding, control = 100.

Take B17: the Ho/Con_1a was 108 relative binding, control = 100.

Regarding B18, the Ho/Con_1a is 102 relative binding, control = 100.

On to B19, for which the Ho/Con_1a was 99.9 relative binding, control = 100.

Take B20: the Ho/Con_1a was 106 relative binding, control = 100.

With B21, the Ho/Con_1a was 107 relative binding, control = 100.
